From patent US20170073406A1

Key:
[1] = target: human LTBP1 plus proTGF-β1, expressed by transiently transfected SW480 or HEK293 cells (human) (UniProt Q14766); assay: cell-based or functional assay
[2] = target: human GARP-proTGF-β1 (membrane-bound GARP with proTGF-β1, on transfected cells) (human) (UniProt Q14392); assay: cell-based or functional assay
[3] = target: LTBP1-proTGFβ1 (protein complex of the ELISA of Example 35) (UniProt Q14766); assay: ELISA with increasing concentrations of MAB246
Chain of LTBP1-proTGFβ1 (protein complex of the ELISA of Example 35) (Q14766 347-1721 limits assumed, chain 1 of 2): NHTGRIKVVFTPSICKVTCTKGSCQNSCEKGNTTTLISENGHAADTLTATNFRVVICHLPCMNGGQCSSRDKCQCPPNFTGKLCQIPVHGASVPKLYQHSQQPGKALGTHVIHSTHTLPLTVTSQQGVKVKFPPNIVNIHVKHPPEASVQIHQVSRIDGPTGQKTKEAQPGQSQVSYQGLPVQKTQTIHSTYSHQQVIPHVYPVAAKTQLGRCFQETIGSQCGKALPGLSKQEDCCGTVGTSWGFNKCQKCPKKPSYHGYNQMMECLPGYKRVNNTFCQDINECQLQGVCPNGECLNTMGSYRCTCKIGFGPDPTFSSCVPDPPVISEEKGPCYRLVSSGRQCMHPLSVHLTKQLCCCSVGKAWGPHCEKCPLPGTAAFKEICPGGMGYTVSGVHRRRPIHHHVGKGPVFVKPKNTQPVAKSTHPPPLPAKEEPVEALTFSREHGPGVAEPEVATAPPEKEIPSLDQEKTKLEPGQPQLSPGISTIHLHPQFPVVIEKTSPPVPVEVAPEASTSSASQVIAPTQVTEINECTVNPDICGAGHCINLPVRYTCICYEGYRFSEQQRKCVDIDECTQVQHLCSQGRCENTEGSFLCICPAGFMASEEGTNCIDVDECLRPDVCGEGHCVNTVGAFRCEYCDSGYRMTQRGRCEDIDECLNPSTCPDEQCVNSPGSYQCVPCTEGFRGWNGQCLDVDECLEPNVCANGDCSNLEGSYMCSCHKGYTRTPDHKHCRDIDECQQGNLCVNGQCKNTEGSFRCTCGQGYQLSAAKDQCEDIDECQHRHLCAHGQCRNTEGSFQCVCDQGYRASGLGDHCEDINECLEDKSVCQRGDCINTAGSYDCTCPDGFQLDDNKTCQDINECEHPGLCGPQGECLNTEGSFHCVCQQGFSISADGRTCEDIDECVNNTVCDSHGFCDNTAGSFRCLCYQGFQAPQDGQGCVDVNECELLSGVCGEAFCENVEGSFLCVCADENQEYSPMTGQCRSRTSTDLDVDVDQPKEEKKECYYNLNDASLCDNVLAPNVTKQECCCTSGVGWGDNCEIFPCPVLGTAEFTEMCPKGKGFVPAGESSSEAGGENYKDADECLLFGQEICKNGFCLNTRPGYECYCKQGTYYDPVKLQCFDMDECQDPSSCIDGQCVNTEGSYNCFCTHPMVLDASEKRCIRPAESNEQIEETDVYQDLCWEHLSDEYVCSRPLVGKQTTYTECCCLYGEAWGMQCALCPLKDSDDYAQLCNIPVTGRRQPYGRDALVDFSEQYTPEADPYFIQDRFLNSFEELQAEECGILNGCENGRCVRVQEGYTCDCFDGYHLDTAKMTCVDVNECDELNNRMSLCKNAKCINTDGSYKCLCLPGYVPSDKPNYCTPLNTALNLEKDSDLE
Chain of LTBP1-proTGFβ1 (protein complex of the ELISA of Example 35) (chain, as listed by the source limits assumed, chain 2 of 2): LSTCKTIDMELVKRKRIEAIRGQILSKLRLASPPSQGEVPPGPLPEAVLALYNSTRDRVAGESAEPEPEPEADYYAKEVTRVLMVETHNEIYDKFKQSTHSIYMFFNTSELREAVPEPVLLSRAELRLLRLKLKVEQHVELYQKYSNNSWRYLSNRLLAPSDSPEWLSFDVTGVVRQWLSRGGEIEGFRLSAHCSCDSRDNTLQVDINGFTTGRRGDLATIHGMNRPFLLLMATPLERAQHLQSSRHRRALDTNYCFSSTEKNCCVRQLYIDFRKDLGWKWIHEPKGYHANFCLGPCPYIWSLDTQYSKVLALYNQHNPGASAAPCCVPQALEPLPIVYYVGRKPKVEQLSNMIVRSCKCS

[4] = target: TGF-β1 LAP complexed with sGARP (Homo sapiens (Human)) (UniProt Q14392); assay: ELISA with increasing concentrations of MAB246
Chain of TGF-β1 LAP complexed with sGARP (Homo sapiens (Human)) (Q14392 18-627 limits assumed, chain 1 of 2): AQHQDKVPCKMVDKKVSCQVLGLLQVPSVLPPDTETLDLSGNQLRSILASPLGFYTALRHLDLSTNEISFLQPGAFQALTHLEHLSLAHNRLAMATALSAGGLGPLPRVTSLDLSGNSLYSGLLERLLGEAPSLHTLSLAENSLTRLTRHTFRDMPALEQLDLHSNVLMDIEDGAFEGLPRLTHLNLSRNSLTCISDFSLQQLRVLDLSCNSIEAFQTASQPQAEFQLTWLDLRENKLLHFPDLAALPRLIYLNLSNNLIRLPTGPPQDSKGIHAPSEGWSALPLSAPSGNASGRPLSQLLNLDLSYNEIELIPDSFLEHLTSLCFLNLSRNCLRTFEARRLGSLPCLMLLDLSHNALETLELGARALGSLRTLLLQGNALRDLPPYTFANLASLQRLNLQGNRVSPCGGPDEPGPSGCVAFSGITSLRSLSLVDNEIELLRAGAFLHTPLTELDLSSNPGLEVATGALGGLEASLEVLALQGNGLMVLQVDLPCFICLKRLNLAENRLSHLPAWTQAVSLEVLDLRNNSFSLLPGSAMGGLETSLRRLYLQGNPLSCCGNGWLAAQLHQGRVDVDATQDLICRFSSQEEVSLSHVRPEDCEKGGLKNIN
Chain of TGF-β1 LAP complexed with sGARP (Homo sapiens (Human)) (chain, as listed by the source limits assumed, chain 2 of 2): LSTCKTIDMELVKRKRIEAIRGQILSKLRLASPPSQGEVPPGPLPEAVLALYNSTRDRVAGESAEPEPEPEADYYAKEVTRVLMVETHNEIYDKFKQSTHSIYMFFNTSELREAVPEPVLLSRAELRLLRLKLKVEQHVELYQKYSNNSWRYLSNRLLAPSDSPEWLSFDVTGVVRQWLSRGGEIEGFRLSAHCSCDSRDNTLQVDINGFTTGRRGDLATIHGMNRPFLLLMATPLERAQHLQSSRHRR

[5] = target: proTGF-β1 complexed with sGARP (Homo sapiens (Human)) (UniProt Q14392); assay: ELISA with increasing concentrations of MAB246
Chain of proTGF-β1 complexed with sGARP (Homo sapiens (Human)) (Q14392 18-627 limits assumed, chain 1 of 2): as the sequence (Q14392 18-627 limits assumed, chain 1 of 2) above

[6] = target: human GARP-TGF-β1 LAP (membrane-bound GARP with TGF-β1 LAP, on 300.19 cells) (human) (UniProt Q14392); assay: flow cytometry on 300.19 cells stably expressing the complex; MFI minus control 300.19 cells; one-site binding fit
Chain of human GARP-TGF-β1 LAP (membrane-bound GARP with TGF-β1 LAP, on 300.19 cells) (human) (Q14392 20-662 limits assumed, chain 1 of 2): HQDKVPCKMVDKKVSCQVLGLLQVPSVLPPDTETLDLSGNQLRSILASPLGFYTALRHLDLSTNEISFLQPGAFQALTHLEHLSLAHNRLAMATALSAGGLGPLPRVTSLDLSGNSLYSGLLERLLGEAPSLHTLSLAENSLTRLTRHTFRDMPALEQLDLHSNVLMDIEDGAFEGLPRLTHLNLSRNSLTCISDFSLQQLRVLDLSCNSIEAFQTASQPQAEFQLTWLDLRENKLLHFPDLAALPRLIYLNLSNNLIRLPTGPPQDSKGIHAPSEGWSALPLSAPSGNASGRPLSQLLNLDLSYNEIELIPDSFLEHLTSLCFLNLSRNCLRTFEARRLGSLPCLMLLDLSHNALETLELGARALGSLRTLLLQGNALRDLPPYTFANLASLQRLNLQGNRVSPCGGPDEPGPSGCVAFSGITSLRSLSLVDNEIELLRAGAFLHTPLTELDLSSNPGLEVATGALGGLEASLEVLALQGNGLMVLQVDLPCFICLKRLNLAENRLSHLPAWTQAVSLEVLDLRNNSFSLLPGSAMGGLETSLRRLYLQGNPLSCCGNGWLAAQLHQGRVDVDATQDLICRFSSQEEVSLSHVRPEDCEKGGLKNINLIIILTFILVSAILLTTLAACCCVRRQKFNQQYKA

[7] = target: human GARP-proTGF-β1 (membrane-bound GARP with proTGF-β1, on transfected cells) (human) (UniProt Q14392); assay: as above
[8] = target: biotinylated His-tagged TGF-β1 LAP C4S (Homo sapiens (Human)) (UniProt P01137); assay: ELISA, neutravidin plate with biotinylated His-tagged TGF-β1 LAP C4S; antibody dilution 1:1,000; fluorescent secondary detection
Chain of biotinylated His-tagged TGF-β1 LAP C4S (Homo sapiens (Human)) (P01137 other isoform, or with tags, fused parts or gaps limits assumed): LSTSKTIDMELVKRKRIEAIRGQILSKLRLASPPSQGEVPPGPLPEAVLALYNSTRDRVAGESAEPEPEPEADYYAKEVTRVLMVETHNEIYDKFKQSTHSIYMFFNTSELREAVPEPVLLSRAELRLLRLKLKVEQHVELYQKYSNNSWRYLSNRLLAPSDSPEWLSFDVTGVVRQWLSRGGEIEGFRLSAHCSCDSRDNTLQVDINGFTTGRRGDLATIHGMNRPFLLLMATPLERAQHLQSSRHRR

[9] = target: biotinylated His-tagged TGF-β1 LAP C4S (Homo sapiens (Human)) (UniProt P01137); assay: ELISA, neutravidin plate with biotinylated His-tagged TGF-β1 LAP C4S; antibody dilution 1:5,000; fluorescent secondary detection
[10] = target: biotinylated His-tagged TGF-β1 LAP C4S (Homo sapiens (Human)) (UniProt P01137); assay: ELISA, neutravidin plate with biotinylated His-tagged TGF-β1 LAP C4S; antibody dilution 1:10,000; fluorescent secondary detection

Chain of human LTBP1 plus proTGF-β1, expressed by transiently transfected SW480 or HEK293 cells (human) (Q14766 347-1721 limits assumed, chain 1 of 2): as the sequence (Q14766 347-1721 limits assumed, chain 1 of 2) above
Chain of human GARP-proTGF-β1 (membrane-bound GARP with proTGF-β1, on transfected cells) (human) (Q14392 20-662 limits assumed, chain 1 of 2): as the sequence (Q14392 20-662 limits assumed, chain 1 of 2) above

Row | Substance | RLUs (TMLC luciferase), no antibody [1] [fold] | reporter activity (TMLC luciferase, RLU), 20 or 50 µg/ml MAB246 [2] [fold] | RLUs (TMLC luciferase), with αvβ6-expressing cells and 20 or 50 µg/ml MAB246 [1] [fold] | reporter activity (TMLC luciferase, RLU), 20 µg/ml MAB246 [1] [fold] | reporter activity (TMLC luciferase, RLU), 50 µg/ml MAB246 [1] [fold] | Kd [3] [nM] | Kd [4] [nM] | Kd [5] [nM] | Kd [6] [µg/mL] | Kd [7] [µg/mL] | RFU [8] [RFU] | RFU [9] [RFU] | RFU [10] [RFU]
1 | αvβ6 integrin (on cells, e.g. SW480-β6 cells) (from UniProt P06756 31-1048; P18564 22-788) (receptor) | 2.5 | – | – | – | – | – | – | – | – | – | – | – | –
2 | MAB246 (R&D Systems, Minneapolis, Minn.), mouse IgG1 anti-TGF-β1 LAP antibody, clone 27235 | – | < 2 | 3.5 | 2 | > 2.5 | 0.24 | 0.14 | 0.91 | 0.08 | 35.1 | 26800 | 24900 | 18800
3 | 9016.2 (mouse monoclonal anti-TGF-β LAP antibody, Abcam, Cambridge, UK) | – | – | – | – | – | – | – | – | – | – | 14600 | 4540 | 3310
4 | MAB2463 (R&D Systems, Minneapolis, Minn.), mouse IgG1 anti-TGF-β1 LAP antibody, clone 27232 | – | – | – | – | – | – | – | – | 0.11 | 0.19 | 57500 | 42100 | 32000
